Measurements reported in patent US20220119448A1 (ZHEJIANG DOER BIOLOGICS, published 2022).

Key:
[1] = target: GLP-2R (GLP-2 receptor) on GLP-2R/Luc-CHO cells; experiment: cell-based or functional assay
[2] = target: T1, VEGF (UniProt P15692-4 27-191, limits assumed, biotin-labelled (Sulfo-NHS biotin, molar ratio 2:1) in the BLI assay; unlabelled in the competition ELISA); experiment: BLI (Octet-QK), biotin-VEGF on SA probe; repeat 1
T1 construct: also called biotin-labeled VEGF
Text: (§1) The binding affinities of the fusion proteins were detected using BLI (Bio-layer inteferometry, ForteBio). […] Excess biotin not involved in labeling was removed by dialysis. […] The buffer used in the experiment was PBS (containing 0.1% Tween-20). […] Based on the program settings, the fusion proteins were bound, and then dissociated in PBST solution, to obtain the experimental curves. According to the result analysis software of Octet-QK, local full was used to fit the curves of the experimental results, then kon, kdis and Kd were determined.

[3] = target: T1, VEGF; experiment: BLI (Octet-QK), biotin-VEGF on SA probe; repeat 2
Text: as §1

[4] = target: T1, VEGF; experiment: BLI (Octet-QK), biotin-VEGF on SA probe; repeat 3
Text: as §1

[5] = target: T1, VEGF; experiment: BLI (Octet-QK), biotin-VEGF on SA probe; average of 3 repeats (STD 0.10)
Text: as §1

[6] = target: T1, VEGF; experiment: competition ELISA: inhibition of VEGF binding to plate-coated VEGF Receptor 2 (KDR)
Description: (§2) The plate was then blocked with 1% BSA/TBS and placed at 37° C. for 1 h; 1% BSA/TBS was added to the plate, 200 μL per well, and placed at 37° C. for 2 h.
(§3) Then, the stock solutions were diluted by 3 times to a total of 11 concentrations. […] The KDR-coated ELISA plate was washed twice and pat-dried. The mixture was successively transferred to the ELISA plate and placed at 37° C. for 1 h, then the plate was washed for 6 times. […] The plate was placed at 37° C. for 1 h and washed for 6 times. Then, goat anti-rat secondary antibody (Pierce, 31432, QA1969921) diluted at 1:1000 was added, 50 μL per well. The plate was placed at 37° C. for 1 h and washed for 6 times. Color developing solution was added after reaction, and the plated was incubated at 37° C. for 15 min. Stop buffer was added to terminate the color reaction. OD450 values were read on a microplate reader.

[7] = target: T1, VEGF; experiment: competition ELISA: sample pre-mixed with VEGF, mixture put on a plate coated with VEGF Receptor 2 (KDR), bound VEGF detected with mouse anti-human VEGF antibody, OD450; blocked ligand-receptor pair VEGF/KDR
Description: as §2, §3

[8] = target: T1, VEGF; experiment: BLI (Octet-QK), biotin-VEGF on SA probe; average of 3 repeats (STD 0.05)
Text: as §1

T1 sequence (P15692 other isoform, or with tags, fused parts or gaps limits assumed): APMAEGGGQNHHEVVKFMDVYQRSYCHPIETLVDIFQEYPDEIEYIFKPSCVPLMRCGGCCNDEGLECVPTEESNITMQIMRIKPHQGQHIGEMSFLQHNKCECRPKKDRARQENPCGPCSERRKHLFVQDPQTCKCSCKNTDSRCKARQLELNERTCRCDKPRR

| Binder | in vitro cytological activity, EC50 (luciferase reporter, GLP-2R/Luc-CHO cells) [1] | Kd [2] | Kd [3] | Kd [4] | Kd [5] | IC50 [6] | IC50 (read off the curve) [7] | Kd [8] |
| --- | --- | --- | --- | --- | --- | --- | --- | --- |
| GLP2G-PU69x45 (ligand) HGDGSFSDEMNTILDNLAARDFINWLIQTKITDAPPEAPEAPEAAPAAPEPAEAPPEAPEAPEAAPAAPEPAEAPPEAPEAPEAAPAAPEPAEAPPEAPEAPEAAPAAPEPAEAPPEAPEAPEAAPAAPEPAEAPPEAPEAPEAAPAAPEPAEAPPEAPEAPEAAPAAPEPAEAPPEAPEAPEAAPAAPEPAEAPPEAPEAPEAAPAAPEPAEAPPEAPEAPEAAPAAPEPAEAPPEAPEAPEAAPAAPEPAEAPPEAPEAPEAAPAAPEPAEAPPEAPEAPEAAPAAPEPAEAPPEAPEAPEAAPAAPEPAEAPPEAPEAPEAAPAAPEPAEAPPEAPEAPEAAPAAPEPAEAPPEAPEAPEAAPAAPEPAEAPPEAPEAPEAAPAAPEPAEAPPEAPEAPEAAPAAPEPAEAPPEAPEAPEAAPAAPEPAEAPPEAPEAPEAAPAAPEPAEAPPEAPEAPEAAPAAPEPAEAPPEAPEAPEAAPAAPEPAEAPPEAPEAPEAAPAAPEPAEAPPEAPEAPEAAPAAPEPAEAPPEAPEAPEAAPAAPEPAEAPPEAPEAPEAAPAAPEPAEAPPEAPEAPEAAPAAPEPAEAPPEAPEAPEAAPAAPEPAEAPPEAPEAPEAAPAAPEPAEAPPEAPEAPEAAPAAPEPAEAPPEAPEAPEAAPAAPEPAEAPPEAPEAPEAAPAAPEPAEAPPEAPEAPEAAPAAPEPAEAPPEAPEAPEAAPAAPEPAEAPPEAPEAPEAAPAAPEPAEAPPEAPEAPEAAPAAPEPAEAPPEAPEAPEAAPAAPEPAEAPPEAPEAPEAAPAAPEPAEAPPEAPEAPEAAPAAPEPAEAPPEAPEAPEAAPAAPEPAEAPPEAPEAPEAAPAAPEPAEAPPEAPEAPEAAPAAPEPAEAPPEAPEAPEAAPAAPEPAEAPPEAPEAPEAAPAAPEPAE | 279 nM |  |  |  |  |  |  |  |
| GLP2G-PU141x47 (ligand) HGDGSFSDEMNTILDNLAARDFINWLIQTKITDAPAAPPEEAAAEPPAAEAAPAPAAPPEEAAAEPPAAEAAPAPAAPPEEAAAEPPAAEAAPAPAAPPEEAAAEPPAAEAAPAPAAPPEEAAAEPPAAEAAPAPAAPPEEAAAEPPAAEAAPAPAAPPEEAAAEPPAAEAAPAPAAPPEEAAAEPPAAEAAPAPAAPPEEAAAEPPAAEAAPAPAAPPEEAAAEPPAAEAAPAPAAPPEEAAAEPPAAEAAPAPAAPPEEAAAEPPAAEAAPAPAAPPEEAAAEPPAAEAAPAPAAPPEEAAAEPPAAEAAPAPAAPPEEAAAEPPAAEAAPAPAAPPEEAAAEPPAAEAAPAPAAPPEEAAAEPPAAEAAPAPAAPPEEAAAEPPAAEAAPAPAAPPEEAAAEPPAAEAAPAPAAPPEEAAAEPPAAEAAPAPAAPPEEAAAEPPAAEAAPAPAAPPEEAAAEPPAAEAAPAPAAPPEEAAAEPPAAEAAPAPAAPPEEAAAEPPAAEAAPAPAAPPEEAAAEPPAAEAAPAPAAPPEEAAAEPPAAEAAPAPAAPPEEAAAEPPAAEAAPAPAAPPEEAAAEPPAAEAAPAPAAPPEEAAAEPPAAEAAPAPAAPPEEAAAEPPAAEAAPAPAAPPEEAAAEPPAAEAAPAPAAPPEEAAAEPPAAEAAPAPAAPPEEAAAEPPAAEAAPAPAAPPEEAAAEPPAAEAAPAPAAPPEEAAAEPPAAEAAPAPAAPPEEAAAEPPAAEAAPAPAAPPEEAAAEPPAAEAAPAPAAPPEEAAAEPPAAEAAPAPAAPPEEAAAEPPAAEAAPAPAAPPEEAAAEPPAAEAAPAPAAPPEEAAAEPPAAEAAPAPAAPPEEAAAEPPAAEAAPAPAAPPEEAAAEPPAAEAAPAPAAPPEEAAAEPPAAEAAPAPAAPPEEAAAEPPAAEAAPAPAAPPEEAAAEPPAAEAAPAPAAPPEEAAAEPPAAEAAP | 299 nM |  |  |  |  |  |  |  |
| ankyrin repeat protein binding to VEGF (ARVEGF) (designed binder, Its preparation and any tag are not described) GSDLDKKLLEAARAGQDDEVRILMANGADVNARDSTGWTPLHLAAPWGHPEIVEVLLKNGADVNAADFQGWTPLHLAAAVGHLEIVEVLLKYGADVNAQDKFGKTAFDISIDNGNEDLAEILQKAA |  | 0.58 nM | 0.69 nM | 0.77 nM | 0.68 nM | 0.65 nM | ~0.3 nM |  |

Further lines, results first:

| in vitro cytological activity, EC50 (luciferase reporter, GLP-2R/Luc-CHO cells) [1] | Kd [2] | Kd [3] | Kd [4] | Kd [5] | IC50 [6] | IC50 (read off the curve) [7] | Kd [8] | Binder |
| --- | --- | --- | --- | --- | --- | --- | --- | --- |
| 311 nM |  |  |  |  |  |  |  | GLP2G-PU98x43 (ligand) HGDGSFSDEMNTILDNLAARDFINWLIQTKITDAEPAAPAPAEPAAPAPEAPAAEPAAPAPAEPAAPAPEAPAAEPAAPAPAEPAAPAPEAPAAEPAAPAPAEPAAPAPEAPAAEPAAPAPAEPAAPAPEAPAAEPAAPAPAEPAAPAPEAPAAEPAAPAPAEPAAPAPEAPAAEPAAPAPAEPAAPAPEAPAAEPAAPAPAEPAAPAPEAPAAEPAAPAPAEPAAPAPEAPAAEPAAPAPAEPAAPAPEAPAAEPAAPAPAEPAAPAPEAPAAEPAAPAPAEPAAPAPEAPAAEPAAPAPAEPAAPAPEAPAAEPAAPAPAEPAAPAPEAPAAEPAAPAPAEPAAPAPEAPAAEPAAPAPAEPAAPAPEAPAAEPAAPAPAEPAAPAPEAPAAEPAAPAPAEPAAPAPEAPAAEPAAPAPAEPAAPAPEAPAAEPAAPAPAEPAAPAPEAPAAEPAAPAPAEPAAPAPEAPAAEPAAPAPAEPAAPAPEAPAAEPAAPAPAEPAAPAPEAPAAEPAAPAPAEPAAPAPEAPAAEPAAPAPAEPAAPAPEAPAAEPAAPAPAEPAAPAPEAPAAEPAAPAPAEPAAPAPEAPAAEPAAPAPAEPAAPAPEAPAAEPAAPAPAEPAAPAPEAPAAEPAAPAPAEPAAPAPEAPAAEPAAPAPAEPAAPAPEAPAAEPAAPAPAEPAAPAPEAPAAEPAAPAPAEPAAPAPEAPAAEPAAPAPAEPAAPAPEAPAAEPAAPAPAEPAAPAPEAPAAEPAAPAPAEPAAPAPEAPAAEPAAPAPAEPAAPAPEAPAAEPAAPAPAEPAAPAPEAPAAEPAAPAPAEPAAPAPEAPAAEPAAPAPAEPAAPAPEAPAAEPAAPAPAEPAAPAPEAPAAEPAAPAPAEPAAPAPEAPA |
|  | 0.62 nM | 0.61 nM | 0.7 nM |  | 0.55 nM | ~0.3 nM | 0.64 nM | PU73x49-ARVEGF (designed binder, also called PU-ARVEGF fusion protein) APAEAPAAAEEAPPAEPAPEAPAEAPAAAEEAPPAEPAPEAPAEAPAAAEEAPPAEPAPEAPAEAPAAAEEAPPAEPAPEAPAEAPAAAEEAPPAEPAPEAPAEAPAAAEEAPPAEPAPEAPAEAPAAAEEAPPAEPAPEAPAEAPAAAEEAPPAEPAPEAPAEAPAAAEEAPPAEPAPEAPAEAPAAAEEAPPAEPAPEAPAEAPAAAEEAPPAEPAPEAPAEAPAAAEEAPPAEPAPEAPAEAPAAAEEAPPAEPAPEAPAEAPAAAEEAPPAEPAPEAPAEAPAAAEEAPPAEPAPEAPAEAPAAAEEAPPAEPAPEAPAEAPAAAEEAPPAEPAPEAPAEAPAAAEEAPPAEPAPEAPAEAPAAAEEAPPAEPAPEAPAEAPAAAEEAPPAEPAPEAPAEAPAAAEEAPPAEPAPEAPAEAPAAAEEAPPAEPAPEAPAEAPAAAEEAPPAEPAPEAPAEAPAAAEEAPPAEPAPEAPAEAPAAAEEAPPAEPAPEAPAEAPAAAEEAPPAEPAPEAPAEAPAAAEEAPPAEPAPEAPAEAPAAAEEAPPAEPAPEAPAEAPAAAEEAPPAEPAPEAPAEAPAAAEEAPPAEPAPEAPAEAPAAAEEAPPAEPAPEAPAEAPAAAEEAPPAEPAPEAPAEAPAAAEEAPPAEPAPEAPAEAPAAAEEAPPAEPAPEAPAEAPAAAEEAPPAEPAPEAPAEAPAAAEEAPPAEPAPEAPAEAPAAAEEAPPAEPAPEAPAEAPAAAEEAPPAEPAPEAPAEAPAAAEEAPPAEPAPEAPAEAPAAAEEAPPAEPAPEAPAEAPAAAEEAPPAEPAPEAPAEAPAAAEEAPPAEPAPEAPAEAPAAAEEAPPAEPAPEAPAEAPAAAEEAPPAEPAPEAPAEAPAAAEEAPPAEPAPEAPAEAPAAAEEAPPAEPAPEAPAEAPAAAEEAPPAEPAPEAPAEAPAAAEEAPPAEPAPEAPAEAPAAAEEAPPAEPAPEGSDLDKKLLEAARAGQDDEVRILMANGADVNARDSTGWTPLHLAAPWGHPEIVEVLLKNGADVNAADFQGWTPLHLAAAVGHLEIVEVLLKYGADVNAQDKFGKTAFDISIDNGNEDLAEILQKAA |
